Laboratory results from paper PMC7851962.

Target: GFP-EB1-A7 (UniProt Q15691)
Test: co-IP

Chain of UniProt Q15691 (Q15691 whole entry): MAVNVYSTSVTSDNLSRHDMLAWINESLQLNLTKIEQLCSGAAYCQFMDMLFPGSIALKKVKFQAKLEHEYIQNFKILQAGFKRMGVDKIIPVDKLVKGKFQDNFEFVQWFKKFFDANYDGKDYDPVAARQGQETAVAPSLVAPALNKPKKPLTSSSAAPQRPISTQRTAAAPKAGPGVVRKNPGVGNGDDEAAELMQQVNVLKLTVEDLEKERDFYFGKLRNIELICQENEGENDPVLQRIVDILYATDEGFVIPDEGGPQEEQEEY

percent of the amount co-immunoprecipitated with WT EB1: 50%
B1: Arl4D^WT expressed in COS-7 cells (natural protein)
chain: MGNHLTEMAPTASSFLPHFQALHVVVIGLDSAGKTSLLYRLKFKEFVQSVPTKGFNTEKIRVPLGGSRGITFQVWDVGGQEKLRPLWRSYTRRTDGLVFVVDAAEAERLEEAKVELHRISRASDNQGVPVLVLANKQDQPGALSAAEVEKRLAVRELAAATLTHVQGCSAVDGLGLQQGLERLYEMILKRKKAARGGKKRR
